Measured values from patent US20220273713A1, “METHOD OF INHIBITING OR ACTIVATING GAMMA DELTA T CELLS” (The University of Melbourne, priority 2019, published 2022).
“And” between values parts separate entries of the source, which are not always exact repeats. Equal values may be shown once. “Also recorded” adds a separate entry of the source.

Tests used:
Format in all cases: cell-based, human
Vγ9Vδ2 cells [1] = assay: Luminex (Vγ9Vδ2): cytokine/chemokine secretion by pre-expanded Vγ9Vδ2 cells; settings: for IL-4 / IL-8 / GMCSF / ICAM-1 / IFNγ / IL-13 / IL-17A / MIP-1a / MIP-1b / TNFα / sE-selectin / sP-Selectin: 16 hrs, antibodies 10 μg/ml, Zoledronic acid 4 μM, HMBPP 0.5 ng/ml, duplicates, 0 set to 0.1;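 for all read-outs here: Vγ9Vδ2 cells purified from PBMC, activated 48 h with CD3 and CD28 plus IL-2, expanded 14 days in IL-2, then thawed and rested overnight in IL-2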
Protocol: Briefly, Vγ9Vδ2 cells were isolated from 1 healthy donor (Red Cross Australia) and 1 cancer patient derived PBMC using TCRγ/δ+ T Cell Isolation Kit (Miltenyi). Cells were stimulated for 48 hours in TCRPMI supplemented with 100u/ml IL-2, CD3 (10 μg/ml) and CD28 (1 μg/ml). Cells were washed and grown for 14 days in TCRPMI supplemented with 100u/ml IL-2 at 37 degrees C. and 5% CO2, and then frozen down. […] Vγ9Vδ2 were defrosted and rested overnight in TCRPMI supplemented with 50u/ml IL-2 at 37 degrees C. and 5% CO2. […] All samples were run with appropriate controls and standards.

PBMCs = assay: Luminex (PBMCs): cytokine/chemokine expression in freshly isolated PBMCs
Protocol: Blood from a healthy donor (Red Cross Australia) was ficolled, PBMC layer collected, washed and 5×10^5 cells were treated with the indicated antibodies in duplicates @ 10 μg/ml in 500 ul TCRPMI supplemented with 100u/ml IL-2 and incubated at 37 degrees C. and 5% CO2 for 16 hrs. Supernatants were collected and submitted for Luminex Human 20-plex Inflammation panel analysis (EPX200-12185-901) to Crux Biolabs (Scoresby, VIC, Australia). This measures the following analytes: GM-CSF; ICAM-1, IFN-α; IFN-g, IL-1α, IL-1b, IL-10, IL-12p70, IL-13, IL-17A, IL-4, IL-8, IP-10, MCP-1, IL-6, MIP-1α, MIP-1b, sE-selectin, sP-Selectin, TNF-α. All samples were run with appropriate controls and standards. Treatment with antibody 259 was only performed in one well.

γδ T cells = assay: Identification of BTN2A1 agonistic antibodies: CD25 and interferon γ of expanded γδ T cells; settings: 10 μg/ml antibody overnight, vs isotype control BM4
Protocol: In some experiments γδ T cells were enriched by MACS using PE-Cy7-conjugated anti-γδTCR followed by anti-phycoerythrin-mediated magnetic bead purification (Miltenyi Biotec). After enrichment CD3+Vδ2+ γδ T cells were further purified by sorting using an Aria III (BD). Enriched γδ T cells were stimulated in vitro for 48 h with plate-bound anti-CD3ε (OKT3, 10 ug/ml, Bio-X-Cell), soluble anti-CD28 (CD28.2, 1 ug/ml, BD Pharmingen), phytohemagglutinin (0.5 μg/ml, Sigma), IL-15 (50 ng/ml), and recombinant human IL-2 (100 U/ml, PeproTech), followed by maintenance with IL-2 and IL-15 for 14-21 d. Cells were cultured in complete medium consisting of a 50:50 (v/v) mixture of RPMI-1640 and AIM-V (Invitrogen) supplemented with 10% (v/v) FCS (JRH Biosciences), penicillin (100 U/ml), streptomycin (100 μg/ml), Glutamax (2 mM), sodium pyruvate (1 mM), nonessential amino acids (0.1 mM), and HEPES buffer (15 mM), pH 7.2-7.5 (all from Invitrogen Life Technologies), plus 50 μM 2-mercaptoethanol (Sigma-Aldrich).
The inventors screened the panel of antibodies specific for BTN2A1, as described above, to identify those able to agonise BTN2A1. The inventors assessed the ability of anti-BTN2A1 antibodies to activate γδ T cells. The inventors assessed upregulation of CD25 on the surface of previously expanded γδ T cells following culturing the cells with 10 μg/ml anti-BTN2A1 antibodies or isotype control antibody (BM4) overnight.
The inventors additionally measured levels of interferon γ secreted by γδ T cells following culture in the presence of 10 μg/ml anti-BTN2A1 antibodies or isotype control antibody (BM4) overnight. Interferon γ secretion is another indicator of TCR-dependent activation.

LM-MEL-62 melanoma cells = assay: In vitro killing assays (antibody titration, E:T titration), MTS
Protocol: Vγ9Vδ2 cells were isolated from either healthy donor (Red Cross Australia) or cancer patient derived PBMC using TCRγ/δ+ T Cell Isolation Kit (Miltenyi). Patients provided informed consent and research was approved under HREC 14/425. […] For all assays LM-MEL-62 melanoma cells were plated out at 10,000 cells/well in 100 μl RF10 media in 96-well flat bottomed plates and left to adhere overnight at 37 degrees C. and 5% CO2. […] Cells were incubated at 37 degrees C. and 5% CO2. At day 3 Vγ9Vδ2 cells were washed out and 100 μl MTS reagent was added to wells for 1 hour as per manufacturers protocol (Promega, USA). Plates were subsequently read at 490 nm using a Spectrostar Nano microplate reader (BMG Labtech) to determine cell viability corrected for background absorbance.

Vγ9Vδ2 cells [2] = assay: Flow cytometry: CD25 on Vγ9Vδ2 cells without phosphoantigen or APCs; settings: no addition of APCs or phosphoantigen; listed as 259
Excerpt: Vγ9Vδ2 cells were stained for CD3, Vδ2, CD25 and live dead viability dye as previously described and analysed on a Canto flow cytometer (BD). Cells were gated on lymphocytes, single cells, live cells, CD3+ Vδ2+, and activation determined based on CD25 expression.

[3] = γδT cells from a healthy donor, listed as 259
[4] = γδT cells from patient 1 (melanoma patient), listed as 259
[5] = PBMCs from a healthy donor, antibodies 10 μg/ml, 16 hrs, duplicates, 259 one well

B1: antibody 259: agonistic anti-BTN2A1 antibody; VL SEQ ID NO: 156, VH SEQ ID NO: 160 (antibody, V domains shown)
VH: EVQLLESGGGLVQPGGSLRLSCAASGFTFSSYAMQWVRQAPGKGLEWVSRIGPSGGGTMYADSVKGRFTISRDNSKNTLYLQMNSLRAEDMAVYYCARDLGGLSVLFDYWGQGTLVTVSS
VL: QSELTQPPSASETPGQRVTISCSGSSSNIGSNTVSWFQQLPGSAPRLLIYNDHRRPSGVPDRFSGSKSGTSASLVISGLQSQDEADYYCSAWDDSLNGVVFGGGTKLTVL
modifications: amino acid sequence of the VH of antibody 259; amino acid sequence of the VL of antibody 259
B1 was tested, and the “cytokine/chemokine secretion, in words” value (Vγ9Vδ2 cells [1]; across both donors) was “substantial increase in multiple analytes”, the “cytokine/chemokine secretion, in words” value (Vγ9Vδ2 cells [1]; healthy donor derived Vγ9Vδ2 cells, vs isotype (BM4)) was “no IL-4 was detected” and the IL-4 (Vγ9Vδ2 cells [1]; γδT cells from a healthy donor) was 0.1 pg/mL. The IL-8 (Vγ9Vδ2 cells [1]; γδT cells from a healthy donor) was 0.1 pg/mL, the GMCSF (Vγ9Vδ2 cells [1]; [3]) was 578.23 pg/mL and 608.66 pg/mL and the ICAM-1 (Vγ9Vδ2 cells [1]; [3]) was 227.66 pg/mL and 226.25 pg/mL. For the same molecule, the IFNγ (Vγ9Vδ2 cells [1]; [3]) was 359.53 pg/mL and 412.2 pg/mL, the IL-13 (Vγ9Vδ2 cells [1]; [3]) was 23.33 pg/mL and 31.31 pg/mL and the IL-17A (Vγ9Vδ2 cells [1]; [3]) was 3.7 pg/mL and 4.17 pg/mL. For the same molecule, the MIP-1a (Vγ9Vδ2 cells [1]; [3]) was 301.77 pg/mL and 286.07 pg/mL, the MIP-1b (Vγ9Vδ2 cells [1]; [3]) was 9757.6 pg/mL and 9064.66 pg/mL and the TNFα (Vγ9Vδ2 cells [1]; [3]) was 451.81 pg/mL and 481.49 pg/mL. The sE-selectin (Vγ9Vδ2 cells [1]; [3]) was 259.93 pg/mL and 300.24 pg/mL, the sP-Selectin (Vγ9Vδ2 cells [1]; [3]) was 2291.35 pg/mL and 2223.07 pg/mL and the GMCSF (Vγ9Vδ2 cells [1]; [4]) was 1135.87 pg/mL and 1151.41 pg/mL. The ICAM-1 (Vγ9Vδ2 cells [1]; [4]) was 798.07 pg/mL and 755.13 pg/mL, the IFNγ (Vγ9Vδ2 cells [1]; [4]) was 598.1 pg/mL and 740.33 pg/mL and the IL-4 (Vγ9Vδ2 cells [1]; [4]) was 490.79 pg/mL and 389.47 pg/mL. For the same molecule, the IL-8 (Vγ9Vδ2 cells [1]; [4]) was 0.93 pg/mL and 1.06 pg/mL, the IL-13 (Vγ9Vδ2 cells [1]; [4]) was 399.99 pg/mL and 461.27 pg/mL and the IL-17A (Vγ9Vδ2 cells [1]; [4]) was 5.86 pg/mL and 6.55 pg/mL. The MIP-1a (Vγ9Vδ2 cells [1]; [4]) was 317.76 pg/mL and 361.32 pg/mL, the MIP-1b (Vγ9Vδ2 cells [1]; [4]) was 6921.27 pg/mL and 8238.42 pg/mL and the TNFα (Vγ9Vδ2 cells [1]; [4]) was 1130.35 pg/mL and 1137.89 pg/mL. For the same molecule, the sE-selectin (Vγ9Vδ2 cells [1]; [4]) was 311.65 pg/mL and 368.09 pg/mL, the sP-Selectin (Vγ9Vδ2 cells [1]; [4]) was 2170.46 pg/mL and 2424.08 pg/mL and the ICAM-1 (PBMCs; [5]) was 1578.36 pg/mL. The IFNγ (PBMCs; [5]) was 104.96 pg/mL, the IL-1α (PBMCs; [5]) was 8.7 pg/mL and the IL-1β (PBMCs; [5]) was 5.19 pg/mL. The IL-6 (PBMCs; [5]) was 462.59 pg/mL, the IL-8 (PBMCs; [5]) was 495.89 pg/mL and the IL-10 (PBMCs; [5]) was 49.99 pg/mL. It also gave an IL-17A (PBMCs; [5]) of 24.59 pg/mL, an IP-10 (PBMCs; [5]) of 641.08 pg/mL and an MCP-1 (PBMCs; [5]) of 1023.7 pg/mL. For the same molecule, the MIP-1α (PBMCs; [5]) was 131.71 pg/mL, the MIP-1β (PBMCs; [5]) was 584.34 pg/mL and the sE-selectin (PBMCs; [5]) was 327.64 pg/mL. For the same molecule, the TNFα levels (PBMCs; full PBMC) was “no increase”, the “IL-8 (CXCL8), CCL2 (MCP-1) and IL-6” value (PBMCs; full PBMC, vs isotype) was “up-regulated” and the “expression of IFNγ and sE-Selectin” value (PBMCs; full PBMC, vs isotype) was “increased expression”. The “level of secreted interferon γ” value (γδ T cells) was “increase the level of secreted interferon γ”, the “percentage of γδ T cells expressing CD25” value (γδ T cells) was “increase the percentage of γδ T cells expressing CD25” and the “tumour cell killing compared to treatment with zoledronic acid” value (LM-MEL-62 melanoma cells; E:T titration 2:1 to 1:16, 10 ug/ml antibody 259 or 4 uM zoledronate, both donors) was “killing occurred to a lesser extent”. The “induction of LM-MEL-62 cell killing, 259 compared with 253” value (LM-MEL-62 melanoma cells; LM-MEL-62 with Vγ9Vδ2 cells 1:1, antibody titration, listed as 259) was “more potent inducer of cell killing than antibody 253; also recorded: lower viability rates of LM-MEL-62 cells when compared to antibody 253” and the “activation of Vγ9Vδ2 cells by CD25 upregulation” value (Vγ9Vδ2 cells [2]) was “higher activation potential; also recorded: can mimic phosphoantigen mediated activation to various degrees”.
